Reference: the supplement of paper PMC9170038

system: K4 kissing-loop RNA reporter; assay: apparent KD of K4 kissing-loop reporter; higher = weaker reporter binding; details: Eterna round: R107; input ligand: theophylline 20 uM
Experimental: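 RNA-MaP round R107: designed RNA switches with theophylline, tryptophan, arginine or FMN aptamers are transcribed on-chip within common flanks. They are titrated with a labelled K4 kissing-loop RNA reporter in RNA-MaP buffer (100 mM Tris pH 7.5, 80 mM KCl, 4 mM MgCl2), without ligand or with the indicated ligand. Median apparent KD per design.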
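Also: bound reporter read as fluorescence of individual clusters on recovered sequencing chips by microscopy, with normalized cluster intensities fitted with a binding model.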

| Sequence | apparent KD of K4 kissing-loop reporter |
| --- | --- |
| GGAGAGCGGAACGAUACCAGCUGCGGCACGCACCGGAAGUUAAGCCAGUGAUGUUGGCGGAGCCCUUGGCAGCGUGCGCGCGUCC [Abeusma] | 145 nM |
| GGUUGAAGUACCCGGAGUGAUGUUCCGGAUACCAGCAAACCAACUUGCCCUUGGCAGCCGUAUAGCGUCCGGUGGACCGAGCAUA [Soriesreve] | 76.2 nM |
| GCCGAAUCGUUGGGCUCAGUGAUGUUGAUCCGAGGACCGGUACGGCCGCCACUCGAAUGGCAGUGACCACACUGGUAACGUUAAA [theeternabot_exclusion_KL_Trp_A_43] | 575 nM |
| GGAGUUACCUGGGAUACCAGUCGGAGUCUCAGAGCACGGAGUGAUGUUCUGGGAUGUUUCGGCCCUUGGCAGCUCUGGGACUCCA [#2 Exclusion - Theophylline B Attempt #15 (HarryS)] | 219 nM |
| UCUGGUAUAUCUGAUACCAGAGAAUAGAAUCAAUUGAAUAUGGAGUGAUGUUCCAUAAAACUCCCUUGGCAGCAGAUAAUCAUAU [Same State Theophylline B GF 22] | 172 nM |
| AGACCUCAGUGAUGUUGAGGUAACGCUGAUACCAGUGACUUAAUUCACCCUUGGCAGCAGUCCACCAAGGUAUCUGAUUAGGUCU [Theo A Ex t5] | 144 nM |
| CUUUAUCAACCAGAUACCAGCGGUUCUCUAGUUGGCUUCCGUAGUGAUGUUGCGUGGUCCCGCCCUUGGCAGCUGGCCAUGACUA [theeternabot_sameState_KL_Theo_B_5] | 798 nM |
| AGGAGCGUGGGAUGGAAAUCGCACGCUCCUCGAGGACCGGUACGGCCGCCACUCGCUCGCGCCGAGUGAUGUUCGGCCGGCGAAC [#2 Same State - Tryptophan A Attempt #11 (HarryS)] | 178 nM |
| UAGUAGUAGCGAGGAUAUGCAAUAGGCGAGUGAUGUUCGCCAGGCGGGCGUCGCAUAUAAGAAAGAGCAGAAGGCGCUAGGUAGA [SameState - FMN B / A] | 397 nM |
| AAGCAGUCACUCGAAGCCAUCGAAGAUGGCCGAGGACCGGUACGGCCGCCACUCGGAGUGAUGUUCCGAAGACUGCAAAAUAAAA | 363 nM |
| AACGGCCAGUCGGCCGCCACUCAAAGCAGUGAUGUUGCUAACUUUCUAAAAGAGUGAUGUUCUUAGAGGACCGGGACUAAUGUAA [Exclusion Tryptophan B GF 2] | 143 nM |

same assay, conditions: Eterna round: R107; input ligand: tryptophan 2.4 mM

| Sequence | apparent KD of K4 kissing-loop reporter |
| --- | --- |
| AUUUGUUUAUGUGAUACCAGACUUUGCAGUGAUGUUGCAUUUAUUUUAGAAUUUUAUUUAGUCCCUUGGCAGCACUAUGUAUUUA [JR_SSTheophyB_Sub007] | 45.9 nM |
| UGUACCGAGUCAGGAUAUCAAAAUAAUUGGAGUGAUGUUCCAAAUACGACUGACAAAGUCGGUCGAUGAGAAGGGACUUGGUACU [FmnBS 11 #SwitchBubble #StaticStem] | 114 nM |
| CAUACGCAUGGAGGAUAUGAGAUUACUCAUAUCAUUUAAUAUUCUCAGUGAUGUUGAGAUUUAGGCUCAGAAGGCCAUGUGUAUG [Ex FMN B 14] | 375 nM |
| CGCGUGGGUUUGAGAGGGUUUGCGCGAAGUGAGGAUAUUUAGGGAGAAAGAAGGCACUAUAAAAUAUAGUGAUGUUAUAUAAGGG [SSFMNA.J] | 126 nM |
| ACAUCGGUUGAGAGUGAUGUUCCUUGUGUUCGAGGACCGGUACGGCCGCCACUCGGGUAGAAAAUAAAAGAUGUGUUUGAUUUUU [BDazzled - #15 SS Tryptophan A] | 223 nM |
| AAUAAAAUCACGGCCGCCACUGAAUAAUUGGUAAGUAGUGAUGUUACUUUACUUUUCUUAUUUAACAGGACCGGGUGAAUAUUUA [JR_ExcTryptoB_Sub009] | 123 nM |
| GAUAUAGUGAUGUUAUAUAAGAAGGAGUUACGAGGACCGGUACGGCCGCCACUCGAAACGAGUGAUGAUUUGGGAGAUUGGGUUG [SSTryptA.O] | 265 nM |
| GAACGGCGGGCGGCCGCCACUGGUAUACGAGUGAUGUUCGGAUAUACGUGAUGUAAGGUAAUUAACAGGACCGGGUCAGGGCCGG [whbob_SS_Tryp_B_t20] | 238 nM |
| AUGUCUGAUAGCAGUGAUGUUGCUUCGGAUACCAGACGCGAUCUUGUCCCUUGGCAGCUGACACGGCACGUGCUAGGUUAGAAGG [whbob_Ex_Theo_A_th75] | 134 nM |
| CCCUUAGACUCGGCCGCCACUCGUACCGAGAGCAUGCCACCCAUUAGUGAUGUUAAUUUGUCCUUGAGGACCGGGAGCCUAGGAA [theeternabot_exclusion_KL_Trp_B_44] | 822 nM |
| UGACUGGACUGAAGGAGCGCGAAACUCCUAGUGAUGUUAGGACAACGAGACAAAGUCUCGACGCAGGUAGGUCGCAGUCUAGUCU | 132 nM |
| GAGGGCUCGGGAGGAUAUGAGUCUAGUGAUGUUAGGCGGUCCAUGCGCGUGGCGCGUUAUGCCCUUUUAGAAGGCCCGAGCCCGC [#2 Exclusion - FMN B Attempt #23 (HarryS)] | 93.8 nM |
| CCAUCGCUAUUCGAUACCAGCUACUUAGUGAUGUUAAGUUUAUAUCCACUGUAGGUGGAAAGCCCUUGGCAGCGAAUAGUGAUGG [Theophylline B K4 25] | 425 nM |
| GGGCUGGUGCUAGGAUAUGCGAUGAAUGCUCAGAAAACCUUGAGUCCGCAGUGAUGUUGCGGCACCGCAGAAGGAGCUAAGGCUC [Reorinraor] | 127 nM |
| UGUACCGAGUCAGGAUAUGGCGUCGAAAGACGAAACCAGUGAUGUUGGAAUAUCGACGAAAGUCGUCCAGAAGGGACUUGGUACU [FmnBS 17 #SwitchBubble #StaticStem #DoubleMagnetSystem] | 273 nM |
